This passage reports Kd results from patent publication US20140105903A1 (Harvard, published 2014).

Assay [1] concerns the target ANG binding sites on ANG receptor expressing LNCaP cells. Briefly: radio receptor assay, 125I-ANG on LNCaP cells at 4 C, Scatchard analysis; second site.
Assay [2] shares this target. Briefly: radio receptor assay, 125I-ANG on LNCaP cells at 4 C, Scatchard analysis.
The target in assay [3] is T1, Angiogenin (human ANG) (human, UniProt P03950 25-147, iodine-125 label in the radio receptor assay; coupled to Sepharose in the affinity chromatography).
T1 construct: also called free ANG
T1 sequence (P03950 25-147 limits assumed): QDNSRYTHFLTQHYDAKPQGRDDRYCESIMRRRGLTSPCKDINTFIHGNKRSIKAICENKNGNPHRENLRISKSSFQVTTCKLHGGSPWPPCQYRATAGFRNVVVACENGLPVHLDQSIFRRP
Briefly: method not named at this place; Example 4 names ELISA and equilibrium dialysis. (An ELISA detects its analyte on a solid surface through an enzyme-linked reagent.)

On to “Angiogenin (human ANG) (from UniProt P03950 25-147) (ligand)”, for which the results for the Kd in assay [1] and in assay [2] were 170 nM and 0.45 nM, respectively.

B1: Plexin B2 peptide GTSSEYDSILVEINKRVK (SEQ ID NO: 1) (peptide)
peptide: GTSSEYDSILVEINKRVK
notes: Chemically synthesized peptide from the region of Plexin B2 between residues 316 and 449
As for B1, the Kd – broadly, the constant that tells how readily two partners part at equilibrium – in assay [3] was found to be 200 nM.
